# T1: human OX40 expressed on DO11.10 cells (DO11.10-hOX40) (human, UniProt P43489 29-277)
# T1 sequence: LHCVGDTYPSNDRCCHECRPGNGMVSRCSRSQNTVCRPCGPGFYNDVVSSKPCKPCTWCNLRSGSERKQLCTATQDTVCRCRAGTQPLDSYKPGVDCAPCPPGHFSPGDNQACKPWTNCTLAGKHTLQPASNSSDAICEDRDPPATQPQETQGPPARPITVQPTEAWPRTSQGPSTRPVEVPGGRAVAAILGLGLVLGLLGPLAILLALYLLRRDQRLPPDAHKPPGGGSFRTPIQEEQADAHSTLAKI
# T2: cCD137-mFc-Avi (cynomolgus monkey)
# T2 construct: 139 used; also called cyno CD137-mFc-Avi; recombinant cyno CD137
# T2 chain: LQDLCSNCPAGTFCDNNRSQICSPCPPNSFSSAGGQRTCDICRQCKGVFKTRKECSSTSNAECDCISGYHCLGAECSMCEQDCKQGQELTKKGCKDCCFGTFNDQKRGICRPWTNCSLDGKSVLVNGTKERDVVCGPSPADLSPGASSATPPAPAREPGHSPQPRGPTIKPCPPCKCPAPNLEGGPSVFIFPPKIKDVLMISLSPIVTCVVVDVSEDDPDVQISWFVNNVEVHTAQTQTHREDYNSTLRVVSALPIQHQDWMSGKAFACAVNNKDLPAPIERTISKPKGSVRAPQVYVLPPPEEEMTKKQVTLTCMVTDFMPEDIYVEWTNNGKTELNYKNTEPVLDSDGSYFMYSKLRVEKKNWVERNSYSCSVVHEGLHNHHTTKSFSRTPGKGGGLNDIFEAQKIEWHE
# T3: cynomolgus OX40 expressed on DO11.10 cells (DO11.10-cOX40) (cynomolgus, UniProt P43489 29-277 (human entry))
# T3 chain: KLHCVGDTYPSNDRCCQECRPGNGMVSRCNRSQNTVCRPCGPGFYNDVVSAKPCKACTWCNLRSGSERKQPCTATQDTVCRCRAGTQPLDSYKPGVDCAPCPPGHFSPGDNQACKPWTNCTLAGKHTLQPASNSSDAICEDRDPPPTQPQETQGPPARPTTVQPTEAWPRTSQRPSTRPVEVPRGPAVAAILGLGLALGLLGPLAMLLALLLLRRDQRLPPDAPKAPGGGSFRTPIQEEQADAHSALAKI
# Columns and labels:
# [1] = target: T1, human OX40 expressed on DO11.10 cells …; assay: cell-based or functional assay
# [2] = target: T4, human CD137 expressed on DO11.10 cells (DO11.10-hCD137) (human, UniProt Q07011 24-255); assay: cell-based or functional assay
# hCD137-mFc-Avi = target: T5, hCD137-mFc-Avi (human); assay: SPR, antibody captured via anti-human Fc, dimeric antigen flowed, 1:1 fit
# T5 construct: Dimer; a biotinylated version was used where the text says so; also called human CD137-mFc-Avi; hCD137-mFc-Avi-Bio
# Description: (§1) For CD137 affinity determination, a Biacore CM5 chip (GE Healthcare) was coated with anti-human Fc using a Human Antibody Capture Kit (GE Healthcare) according to manufacturer's conditions, to a surface density of approximately 4000 RU. […] Human or cynomolgus CD137 (hCD137-mFc-Avi or cCD137-mFc-Avi) was flowed over at a range of concentrations in a three-fold dilution series starting at 200 nM, at a flow rate of 70 μl/min. The association time was 2 min and the dissociation time was 8 min. Running buffer was HBS-EP (GE Healthcare BR100188). Flow cells were regenerated by injecting 3M magnesium chloride at a flow rate of 30 μl/min for 30 seconds.
# (§2) The binding kinetics were fit with a 1:1 Langmuir model to generate binding association (kₐ) and dissociation (kd) rates. Equilibrium binding constants (KD) were calculated by dividing the dissociation rate by the association rate for each sample. Data analysis was performed with BiaEvaluation software version 3.2.
# cCD137-mFc-Avi = target: T2, cCD137-mFc-Avi; assay: as above
# Description: as §1, §2
# [3] = target: T1, human OX40 expressed on DO11.10 cells …; assay: cell-based or functional assay; remark: listed apart in the source
# [4] = target: T4, human CD137 expressed on DO11.10 cells …; assay: cell-based or functional assay; remark: listed apart in the source
# [5] = target: T1, human OX40 expressed on DO11.10 cells …; assay: flow cytometry on DO11.10 cells expressing the target, mean ± SD of three experiments
# Description: (§3) 50 μl of the antibody dilutions were added to the wells containing cells (final volume 100 μl) and incubated at 4° C. for 1 hour. […] The plates were washed and resuspended in 100 μl of PBS containing DAPI (Biotium, cat no 40043) at 1 μg/ml. The plates were analysed using a Canto II flow cytometer (BD Bioscience) and the data analysed using FlowJo. Dead cells were identified by their higher fluorescence on the UV (405 nm/450/50) channel and excluded from analysis. […] The GMFI data was fit using log (agonist) vs response (three parameters) in Graph Pad Prism Software to generate EC₅₀ values.
# (§4) However, in this experiment, instead of using HEK cells to analyse the non-specific binding, non-transduced DO11.10 cells were used. […] The experiment was repeated three times to increase the reliability of the EC₅₀ values calculated.
# [6] = target: T3, cynomolgus OX40 expressed on DO11.10 …; assay: as above
# Description: as §3, §4
# [7] = target: T4, human CD137 expressed on DO11.10 cells …; assay: as above
# Description: as §3, §4
# T4 sequence (Q07011 24-255): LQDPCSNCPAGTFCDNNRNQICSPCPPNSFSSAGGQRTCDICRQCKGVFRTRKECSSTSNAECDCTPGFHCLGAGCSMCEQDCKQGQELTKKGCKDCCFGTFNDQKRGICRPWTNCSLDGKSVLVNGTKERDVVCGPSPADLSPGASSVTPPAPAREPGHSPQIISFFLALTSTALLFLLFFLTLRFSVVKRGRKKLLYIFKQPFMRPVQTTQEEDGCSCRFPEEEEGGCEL
binder,measurement,setting,value
"FS20-22-49AA/FS30-10-16 (bispecific antibody, human IgG1, kappa, L234A L235A, IgG1 with LALA; also called OX40/CD137 mAb^2; copies: 2 + 2) heavy: EVQLLESGGGLVQPGGSLRLSCAASGFTFSSYDMSWVRQAPGKGLEWVSDIDPTGSKTDYADSVKGRFTISRDNSKNTLYLQMNSLRAEDTAVYYCARDLLVYGFDYWGQGTLVTVSSASTKGPSVFPLAPSSKSTSGGTAALGCLVKDYFPEPVTVSWNSGALTSGVHTFPAVLQSSGLYSLSSVVTVPSSSLGTQTYICNVNHKPSNTKVDKKVEPKSCDKTHTCPPCPAPEAAGGPSVFLFPPKPKDTLMISRTPEVTCVVVDVSHEDPEVKFNWYVDGVEVHNAKTKPREEQYNSTYRVVSVLTVLHQDWLNGKEYKCKVSNKALPAPIEKTISKAKGQPREPQVYTLPPSRDEYWDQEVSLTCLVKGFYPSDIAVEWESNGDEQFAYKTTPPVLDSDGSFFLYSKLTVDQYRWNPADYFSCSVMHEALHNHYTQKSLSLSPG light: EIVLTQSPGTLSLSPGERATLSCRASQSVSSSYLAWYQQKPGQAPRLLIYGASSRATGIPDRFSGSGSGTDFTLTISRLEPEDFAVYYCQQSYSYPVTFGQGTKVEIKRTVAAPSVFIFPPSDEQLKSGTASVVCLLNNFYPREAKVQWKVDNALQSGNSQESVTEQDSKDSTYSLSSTLTLSKADYEKHKVYACEVTHQGLSSPVTKSFNRGEC","SEA assay (PBMC), hIL-2 max response, crosslinked",[1],33800 pg/mL
same,"SEA assay (PBMC), hIL-2 max response, no crosslinker",[1],35100 pg/mL
same,"SEA assay (PBMC), hIL-2 release EC50, crosslinked",[1],0.1 nM
same,"SEA assay (PBMC), hIL-2 release EC50, no crosslinker",[1],0.14 nM
same,"EC50 of mIL-2 release, DO11.10-hCD137 assay, crosslinked",[2],4.7 nM
same,"Emax of mIL-2 release, DO11.10-hCD137 assay, crosslinked",[2],16300 pg/mL
same,Kd,hCD137-mFc-Avi,0.17 nM
same,Kd,cCD137-mFc-Avi,0.15 nM
same,"CD4+ T cell activation assay, hIL-2 release EC50, crosslinked",[3],0.0833 nM
same,"CD4+ T cell activation assay, hIL-2 release EC50, no crosslinker",[3],0.113 nM
same,"CD8+ T cell activation assay, hIL-2 release EC50, crosslinked",[4],1.98 nM
same,"CD8+ T cell activation assay, hIL-2 release EC50, no crosslinker",[4],0.118 nM
same,EC50,[5],0.22 nM
same,EC50,[6],0.71 nM
same,EC50,[7],0.11 nM
